Common to all, as to conditions: protein: recombinant; tags: N-terminal His-SUMO removed by TEV; label: 5'-6-FAM; predicted intramolecular fold
One data set has as its target T1, PARP4 BRCT F39Q (human, UniProt Q9UKK3 1-100, F39Q).
T1 sequence: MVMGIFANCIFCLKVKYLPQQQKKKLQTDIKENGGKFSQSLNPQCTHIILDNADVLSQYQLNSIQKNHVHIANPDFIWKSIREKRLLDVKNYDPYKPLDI
Put plainly: EMSA; 20 nM probe; FP: 50 mM Tris pH 7.5, 50 mM NaCl, 1 mM MgCl2, 0.05% NP40, 2 mM DTT, 5% glycerol, 25 ug/ml BSA, room temp 30 min; EMSA: 50 mM Tris pH 7.5, 50 mM NaCl, 4% Ficoll PM400, 0.05% NP40, 2 mM DTT, 0-18 uM protein, room temp 30 min, gel at 4 C. For orientation: In EMSA bound probe runs differently from free probe, usually more slowly.

A further data set has as its target T2, PARP4 BRCT WT (human, UniProt Q9UKK3 1-100).
T2 sequence: T1 sequence with Q39F
The data set is described as above.

Data set [1] deals with T3, PARP4 BRCT-WGR-CAT WT (human, UniProt Q9UKK3 1-573).
T3 sequence: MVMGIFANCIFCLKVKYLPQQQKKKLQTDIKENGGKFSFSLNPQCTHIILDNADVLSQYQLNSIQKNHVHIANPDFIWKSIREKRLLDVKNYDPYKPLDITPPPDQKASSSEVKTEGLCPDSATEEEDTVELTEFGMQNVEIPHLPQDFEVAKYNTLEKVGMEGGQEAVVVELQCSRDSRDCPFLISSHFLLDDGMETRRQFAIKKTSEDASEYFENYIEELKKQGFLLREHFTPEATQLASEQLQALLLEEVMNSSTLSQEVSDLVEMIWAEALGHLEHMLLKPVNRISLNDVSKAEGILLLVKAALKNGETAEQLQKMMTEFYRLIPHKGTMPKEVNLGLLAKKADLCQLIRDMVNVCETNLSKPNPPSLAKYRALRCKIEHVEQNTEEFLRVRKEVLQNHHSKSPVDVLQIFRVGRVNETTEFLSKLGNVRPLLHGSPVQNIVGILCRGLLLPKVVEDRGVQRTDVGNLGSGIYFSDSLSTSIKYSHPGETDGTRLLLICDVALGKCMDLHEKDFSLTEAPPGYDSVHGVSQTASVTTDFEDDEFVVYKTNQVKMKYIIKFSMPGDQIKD
The description is as above.

In another data set the target is T4, PARP4 BRCT F39A (human, UniProt Q9UKK3 1-100, F39A).
T4 sequence: T1 sequence with Q39A
Described as above.

The next data set concerns the target T5, PARP4 BRCT K31Q (human, UniProt Q9UKK3 1-100, K31Q).
T5 sequence: T1 sequence with K31Q, Q39F
Described as above.

Data set [2] deals with T3, PARP4 BRCT-WGR-CAT WT. Put plainly: FP; 3 or 15 nM probe; FP: 50 mM Tris pH 7.5, 50 mM NaCl, 1 mM MgCl2, 0.05% NP40, 2 mM DTT, 5% glycerol, 25 ug/ml BSA, room temp 30 min; EMSA: 50 mM Tris pH 7.5, 50 mM NaCl, 4% Ficoll PM400, 0.05% NP40, 2 mM DTT, 0-18 uM protein, room temp 30 min, gel at 4 C.

Data on 1 molecule can be found in article PMC12212138, “Crystal structure and mutagenesis of a nucleic acid–binding BRCT domain in human PARP4”.

Where a chain is given by its changes, count along the chain named.

B1: vtRNA1-3 (structured_RNA)
RNA: GGCUGGCUUUAGCUCAGCGGUUACUUCGCGUGUCAUCAAACCACCUCUCUGGGUUGUUCGAGACCCGCGGGCGCUCUCCAGCCCUCUU
Take B1: the Kd – broadly, the concentration at which binding is half-saturated – in the data set with PARP4 BRCT F39Q is 900 ± 500 nM; with PARP4 BRCT WT, 500 ± 200 nM; in the data set with PARP4 BRCT-WGR-CAT WT [1], 3000 ± 1000 nM; with PARP4 BRCT F39A, 600 ± 100 nM; in the data set with PARP4 BRCT K31Q, 3000 ± 1000 nM; with PARP4 BRCT-WGR-CAT WT [2], 27000 ± 9000 nM.
